Results as given in patent US20220073608A1 (JIANGSU HUAIYU PHARMACEUTICAL, published 2022).

T1: mouse SEMA4D, full length, on CHO-K1 cells (CHO-K1 mSEMA4D) (mouse, UniProt O09126 24-861)
T1 construct: whole, on cells; also called murine SEMA4D recombinant cells
T1 sequence (looked up): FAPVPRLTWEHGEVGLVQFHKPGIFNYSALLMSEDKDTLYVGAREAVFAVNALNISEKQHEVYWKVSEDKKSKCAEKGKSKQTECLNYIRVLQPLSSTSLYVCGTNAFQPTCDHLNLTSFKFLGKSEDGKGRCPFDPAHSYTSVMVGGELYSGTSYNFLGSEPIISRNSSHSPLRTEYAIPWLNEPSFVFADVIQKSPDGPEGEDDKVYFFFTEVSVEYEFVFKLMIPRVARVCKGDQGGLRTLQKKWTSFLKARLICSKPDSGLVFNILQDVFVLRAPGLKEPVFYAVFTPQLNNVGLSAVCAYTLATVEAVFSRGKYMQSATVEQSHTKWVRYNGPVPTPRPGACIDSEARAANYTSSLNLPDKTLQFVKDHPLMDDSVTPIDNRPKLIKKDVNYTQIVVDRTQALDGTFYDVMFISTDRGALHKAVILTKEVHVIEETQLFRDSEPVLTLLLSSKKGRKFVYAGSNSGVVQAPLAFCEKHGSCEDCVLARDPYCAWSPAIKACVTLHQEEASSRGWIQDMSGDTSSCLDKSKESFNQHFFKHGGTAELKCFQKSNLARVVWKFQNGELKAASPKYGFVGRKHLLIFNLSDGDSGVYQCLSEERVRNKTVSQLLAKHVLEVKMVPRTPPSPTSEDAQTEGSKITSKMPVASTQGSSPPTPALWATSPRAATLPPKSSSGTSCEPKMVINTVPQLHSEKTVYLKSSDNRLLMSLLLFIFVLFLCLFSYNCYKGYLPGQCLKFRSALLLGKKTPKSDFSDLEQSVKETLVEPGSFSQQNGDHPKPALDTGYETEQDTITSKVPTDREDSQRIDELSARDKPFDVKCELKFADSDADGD

T2: hSEMA4D ECD-His (His-tagged human SEMA4D protein extracellular domain, Met22-Arg734) (human, UniProt Q92854 22-734)
T2 construct: Expressed in CHO-S cells, purified on Ni column; also called protein immunogen; immunogen A; not shown: His tag of the pCP vector
T2 sequence: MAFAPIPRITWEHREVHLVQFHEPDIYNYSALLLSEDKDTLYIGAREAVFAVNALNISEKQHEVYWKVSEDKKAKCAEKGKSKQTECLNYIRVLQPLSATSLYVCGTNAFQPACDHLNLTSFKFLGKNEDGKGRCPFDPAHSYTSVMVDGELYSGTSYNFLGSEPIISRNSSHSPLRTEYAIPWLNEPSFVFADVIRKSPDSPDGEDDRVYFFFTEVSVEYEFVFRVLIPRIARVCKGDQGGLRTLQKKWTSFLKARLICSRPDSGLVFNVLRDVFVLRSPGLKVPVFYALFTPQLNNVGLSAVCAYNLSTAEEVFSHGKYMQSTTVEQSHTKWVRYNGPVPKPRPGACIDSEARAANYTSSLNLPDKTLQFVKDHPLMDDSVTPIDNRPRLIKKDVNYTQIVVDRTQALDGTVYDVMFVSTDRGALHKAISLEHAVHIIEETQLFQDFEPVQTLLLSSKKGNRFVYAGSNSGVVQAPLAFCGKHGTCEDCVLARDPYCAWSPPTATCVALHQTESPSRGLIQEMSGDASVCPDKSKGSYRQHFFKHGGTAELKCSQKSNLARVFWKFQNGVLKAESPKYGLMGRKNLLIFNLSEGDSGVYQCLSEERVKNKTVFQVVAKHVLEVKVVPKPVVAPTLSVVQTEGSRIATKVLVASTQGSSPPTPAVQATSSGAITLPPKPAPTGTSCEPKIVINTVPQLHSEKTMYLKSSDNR

B1: 37C4F7 (antibody, V domains shown)
VH: EFQLQQSGPEVVKPGASVKISCKASGYSFTDYNMNWMKQSKGKSLEWIGVINPNYGTTTYNQNFKGKATLTVDQSSSTAYMQLNSLTSEDSAVYYCARDMYYVYAYYTMDYWGQGTSVTVSS
VL: DVVMTQTPLSLPVSLGDQASISCRSSQSLVHSNGHTYLHWYLQRPGQSPTLLIYKVSNRFSGVPDRFSGSGSGTDFTLKISRVEAEDLGVYFCSQGTHVPWTFGGGTKLEIK
notes: Mouse monoclonal antibody purified from hybridoma supernatant on protein A
B2: 38H2E3 (antibody, V domains shown)
VH: EFQLQQSGPEVVKPGASVKISCKASGYSFTDYNMNWMKQSKGKSLEWIGVISPDYGTTTYNQNFKDKATLTVDQSSSTAYMQLNSLTSEDSAVYYCAKDMYYVYAYYTMDYWGHGTSVTVSS
VL: DVVMTQTPLSLPVSLGDQASISCRSSQSLVHSNGHTYLHWYLQRPGQSPTLLIYKVSNRFSGVPDRVSGSGSGTDFTLKISRVEAEDLGVYFCSQGTHVPRTFGGGTKLEIK
notes: as for B1
B3: 42B7G2 (antibody, V domains shown)
VH: QVQLQQSGAELARPGASVKLSCKASGYTFTDYGISWVKQRTGQGLEWIGEIYLRNDNSYYNEKFKGKATLTADKSSNTAYMELRSLTSEDSAVYFCARWGDHGNNYEDAMDYWGQGTSVTVSS
VL: DIVLTQSPASLAMSLGKRATISCRASESVSIIGSNLIHWYQQKPGQPPKLLIYHASNLETGVPARFSGSGSRTDFTLTIDPVEEDDVAIYYCLQSRKVPYTFGGGTKLEIK
notes: as for B1
B4: 32C8F10 (antibody, V domains shown)
VH: EVQLQQSGAELVRPGASVKLSCTASGFNIKDEYIHWVKQRPEQGLEWIGWIDPANGHTEYASRFQAKATITADTSSNTAYLQLSSLTSEDTAVYYCTTGDYDGFAYWGQGTLVTVST
VL: QIVLTQSPAIMSASPGEKVTISCSARSSVSYMYWYQQKPGSSPKPWIYRTSNLASGVPARFSGSGSGTSYSLTISSMEAEDAATYYCQHYHTYPYTFGGGTKLEIK
notes: as for B1
B5: 31G10C5 (antibody, V domains shown)
VH: EVQLQQSGAELVRPGASVKLSCTASGFNIKDDYIHWVKQRPEQGLEWIGWIDPANGHIEYASNFQAKATITADTSSNTAYLQLSSLTSEDTAVYYCTTGDYDGFTYWGQGTLVTVST
VL: QIVLTQSPAIMSASPGEKVTISCSARSSVSYMYWYQQKPGSSPKPWIYRTSNLASGVPARFSGSGSGTSYSLTISSMEAEDAATYYCQHYHTYPYTFGGGTKLEIK
notes: as for B1
B6: 31C11G2 (antibody, V domains shown)
VH: EVQLQQSGAELVRPGASVKLSCTASGFNIKDEYIHWVKQRPEQGLEWIGWIDPANGHTEYASRFQAKATITADTSSNTAYLQLSSLTSEDTAVYYCTTGDYDGFVYWGQGTLVTVST
VL: QIVLTQSPAIMSASPGEKVTIFCSARSSVSYMYWYQQKPGSSPKPWIYRTSNLASGVPARFSGSGSGTSYSLTISSMEAEDAATYYCQHYHTYPYTFGGGTKLEIK
notes: as for B1
B7: 37F11F9 (antibody, V domains shown)
VH: EVQLQQSGPVLVKPGASVKMSCKASGYTFTDYYMNWVKQSHGKSLEWIGLINPYSGGSTFNQKFKAKATLTVDKSSSSAYMDLNSLTSEDSAVYYCARVGDGYYGVTHGMDYWGQGTSVTVSS
VL: DIVMTPSQKFMSTTVGDRVSITCKASQNVGTAVAWYQQKPGQSPTILIYSASNRYTGVPDRFTGSGSGTDFTLTISNMKSEDLADYFCQQYYIYPFTFAAGTKLELK
notes: as for B1

Tests used:
[1] = target: T1, mouse SEMA4D, full length, on CHO-K1 …; assay: FACS, CHO-K1 mSEMA4D cells; Ab 0.107 nM
Method: (§1) After the cells were counted, they were diluted with PBS to 2×10⁶ cells per milliliter. After washing, 100 μL of diluted and purified leading antibodies was added to each well and the plate was incubated for 1 hour on ice. […] Cells were washed 2 times by centrifugation with FACS buffer. The cells were suspended with 200 μL of FACS buffer, FACS (FACS Verse, purchased from BD) was used to detect and analyze the results.

[2] = target: T3, monkey SEMA4D, full length, on CHO-K1 cells (CHO-K1 cSEMA4D) (monkey); assay: FACS, CHO-K1 cSEMA4D cells; Ab 13.3 nM
T3 construct: whole, on cells; also called monkey SEMA4D recombinant cells
Method: as §1

[3] = target: T1, mouse SEMA4D, full length, on CHO-K1 …; assay: FACS, CHO-K1 mSEMA4D cells; Ab 13.3 nM
Method: as §1

[4] = target: T2, hSEMA4D ECD-His (His-tagged human …); assay: ELISA, coated hSEMA4D ECD-His; Ab 0.000085 nM
Method: (§2) First, hSEMA4D ECD-His was diluted with PBS to a final concentration of 1.0 μg/mL, and then was added to a 96-well ELISA plate, 100 μL per well, sealed with plastic film and incubated overnight at 4° C. On the next day, the plate was washed with a plate washing solution, that is, PBS buffer containing 0.05% (v/v) Tween20, for 4 times, and added with blocking solution, that is, PBS buffer containing 0.05% (v/v) Tween20 and 2% (w/w) BSA, blocked at 37° C. for 1 hour. The blocking solution was poured out and the plate was washed 4 times with the plate washing solution. 100 μL of the purified leading antibodies obtained in Examples 1 and 2 was added to each well. After incubation at 37° C. for 1 hour, the plate was washed 4 times with a plate washing solution. 100 μL of horseradish peroxidase (HRP) labeled secondary antibody (purchased from Sigma) was added at a dilution of 1:10000 to each well, and the plate was incubated at 37° C. for 1 hour, and washed 4 times with a plate washing solution. 100 μL TMB substrate was added to each well, and the plate was incubated at room temperature for 5 minutes, and added with 100 μL stop solution (1.0N HCl) to each well. A microplate reader (SpectraMax M5e, purchased from Molecular Device) was used to read the A450 nm value. […] Wherein, the data in the table was the OD450 nm value.

[5] = target: T2, hSEMA4D ECD-His (His-tagged human …); assay: ELISA, coated hSEMA4D ECD-His; Ab 0.0107 nM
Method: as §2

| Binder | MFI [1] | MFI [2] | MFI [3] | OD450 nm [4] | OD450 nm [5] |
| --- | --- | --- | --- | --- | --- |
| B1 | 30.1 | 2790 | 29.8 | 0.0661 | 0.0864 |
| B2 | 30.5 | 2800 | 31 | 0.0635 | 0.0878 |
| B3 | 30.4 | 2590 | 30.7 | 0.0753 | 0.25 |
| B4 | 30.2 | 5590 | 30.6 | 0.0699 | 0.207 |
| B5 | 29.6 | 4580 | 30.9 | 0.0694 | 0.197 |
| B6 | 30.6 | 4390 | 31.3 | 0.0753 | 0.337 |
| B7 | 29.7 | 2480 | 30.1 | 0.0658 | 0.131 |
